Source: publication PMC10302166, “Molecular basis and dual ligand regulation of tetrameric estrogen receptor α/14-3-3ζ protein complex” (The Journal of Biological Chemistry, 2023)
Where no end group is shown, it is not given here. [ ]: non-standard residue; d: D form. pT = C[C@@H](OP(=O)(O)O)[C@H](N)C(=O)O

How the values were obtained:
[1] = target: T1, ERα(PKA)-strep phosphopeptide (fluorescein-labeled, pT594, with C-terminal strep-tag) (human (from the printed UniProt entry)); assay: fluorescence polarisation; fluorescence anisotropy; 14-3-3ζ titrated (2-fold series from 300 μM) to 2 nM fluorescein-labeled ERα peptide; 20 mM HEPES pH 7.5, 150 mM NaCl, 10 mM MgCl2, 0.1% Tween20, 0.1% BSA; room temperature; apparent
[2] = target: ERα(PKA) phosphopeptide (fluorescein-labeled C-terminal peptide mimic with F591R/P592R, pT594) (human (from the printed UniProt entry)); assay: fluorescence polarisation; as a13 in the presence of a 2-fold dilution series of 3′de-Ac FC-A (0.015–250 μM); cooperativity analysis of the ternary 14-3-3/peptide/FC-A complex
[3] = target: T1, ERα(PKA)-strep phosphopeptide (fluorescein-labeled, pT594, with C-terminal strep-tag) (human); assay: as above
[4] = target: fluorescein-labeled SRC-1 cofactor peptide (LXXLL motif of SRC-1/NCoA-1); assay: fluorescence polarisation; as a10 but in the presence of 100 μM E2; apparent KD
[5] = target: fluorescein-labeled SRC-1 cofactor peptide (LXXLL motif of SRC-1/NCoA-1); assay: fluorescence polarisation; fluorescence anisotropy; ERα or complex titrated (2-fold series from 40 μM ERα) to 20 nM fluorescein-labeled SRC1 peptide; DMSO control; 20 mM HEPES pH 7.5, 150 mM NaCl, 10 mM MgCl2, 0.1% Tween20, 0.1% BSA; room temperature; apparent KD (4PL fit)
14-3-3ζ-strep [6] = target: T2, 14-3-3ζ-strep (human, UniProt P63104 1-245); assay: quantitative LC-QToF-MS of the purified complex; concentrations of 14-3-3ζ and ERα in dilutions of the purified complex read from calibration series of 14-3-3ζ-strep and ERα-pT594-strep
T2 chain: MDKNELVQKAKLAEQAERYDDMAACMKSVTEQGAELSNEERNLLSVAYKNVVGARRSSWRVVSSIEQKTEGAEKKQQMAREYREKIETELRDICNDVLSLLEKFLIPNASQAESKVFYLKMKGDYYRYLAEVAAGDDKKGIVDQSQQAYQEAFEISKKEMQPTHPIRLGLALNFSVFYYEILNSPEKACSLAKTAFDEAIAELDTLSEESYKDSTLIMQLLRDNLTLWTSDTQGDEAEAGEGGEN

[7] = target: ERα LBD-F domain, PKA-responsive (F591R/P592R), phosphorylated at T594, as in the co-purified ERα/14-3-3ζ complex after SUMO cleavage (human (from the printed UniProt entry)) (UniProt P03372); assay: AUC; sedimentation velocity, 20 °C, 20 mM HEPES pH 7.5, 150 mM NaCl, 10 mM MgCl2, 0.5 mM TCEP; 10 μM single proteins, 10 or 30 μM complex; complex also with added 14-3-3ζ (up to six equivalents) or 20 μM E2 or 4-OHT; KD estimated from peak areas (KD = [A][B]/[AB]), dimer to dimer
14-3-3ζ-strep [8] = target: T2, 14-3-3ζ-strep; assay: as above
[9] = target: T3, 14-3-3ζ-strep (human), P63104; assay: SEC; analytical SEC, Superdex200 increase 3.2/300, 20 mM Tris pH 7.5, 150 mM NaCl, 10 mM MgCl2, 0.5 mM TCEP; 10 μM 14-3-3ζ, 10 μM ERα-strep, 20 μM complex; BSA as size reference; settings: remark: other sources report otherwise
T3 chain: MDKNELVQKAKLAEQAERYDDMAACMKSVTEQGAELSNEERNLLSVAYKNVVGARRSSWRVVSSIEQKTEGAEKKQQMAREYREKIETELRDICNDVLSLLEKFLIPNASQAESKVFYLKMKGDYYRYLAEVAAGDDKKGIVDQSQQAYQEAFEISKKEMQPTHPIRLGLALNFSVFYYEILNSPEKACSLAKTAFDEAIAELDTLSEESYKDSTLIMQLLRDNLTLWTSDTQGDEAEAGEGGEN

[10] = target: T3, 14-3-3ζ-strep (human), P63104; assay: AUC; sedimentation velocity, 20 °C, 20 mM HEPES pH 7.5, 150 mM NaCl, 10 mM MgCl2, 0.5 mM TCEP; 10 μM single proteins, 10 or 30 μM complex; complex also with added 14-3-3ζ (up to six equivalents) or 20 μM E2 or 4-OHT; KD estimated from peak areas (KD = [A][B]/[AB]), dimer to dimer; settings: remark: other sources report otherwise
14-3-3ζ-strep [11] = target: T2, 14-3-3ζ-strep; assay: FP
14-3-3ζ-strep [12] = target: T2, 14-3-3ζ-strep; assay: FP
[13] = target: the molecule itself; assay: SEC; analytical SEC, Superdex200 increase 3.2/300, 20 mM Tris pH 7.5, 150 mM NaCl, 10 mM MgCl2, 0.5 mM TCEP; 10 μM 14-3-3ζ, 10 μM ERα-strep, 20 μM complex; BSA as size reference

14-3-3ζ-strep (from UniProt P63104 1-245) (natural protein)
fold reduction in binding affinity against the ERα peptide without strep-tag [1]: 50 fold | cooperativity factor (α) of FC-A stabilisation [2]: 366 | cooperativity factor (α) of FC-A stabilisation [3]: 15

ERα/14-3-3ζ protein complex (tetramer of an ERα homodimer and a 14-3-3ζ homodimer) (from UniProt P03372 302-595; P63104 1-245)
Kd [4]: 0.6 µM | Kd [5]: 9.6 µM

ERα LBD-F domain, PKA-responsive (F591R/P592R), phosphorylated at T594, as in the co-purified ERα/14-3-3ζ complex after SUMO cleavage (from UniProt P03372 302-595) (domain or fragment)
stoichiometry N (14-3-3ζ-strep [6]): 1 ERα:14-3-3ζ | stoichiometry N [7]: 2 | Kd (14-3-3ζ-strep [8]): 0.032 µM | stoichiometry N (ERα:14-3-3ζ (2:2)) (14-3-3ζ-strep [8]): 1

B1: 14-3-3ζ-strep, P63104 1-245 (natural protein)
chain: MDKNELVQKAKLAEQAERYDDMAACMKSVTEQGAELSNEERNLLSVAYKNVVGARRSSWRVVSSIEQKTEGAEKKQQMAREYREKIETELRDICNDVLSLLEKFLIPNASQAESKVFYLKMKGDYYRYLAEVAAGDDKKGIVDQSQQAYQEAFEISKKEMQPTHPIRLGLALNFSVFYYEILNSPEKACSLAKTAFDEAIAELDTLSEESYKDSTLIMQLLRDNLTLWTSDTQGDEAEAGEGGEN
stoichiometry N [9]: 2 | stoichiometry N [10]: 2

AEGFPA[pT]V (also: fluorescein label, position not given here) [WT ERα phosphopeptide (fluorescein-labeled C-terminal peptide mimic, pT594)]
Kd (14-3-3ζ-strep [11]): 2.2 µM

AEGRRA[pT]V (also: fluorescein label, position not given here) [ERα(PKA) phosphopeptide (fluorescein-labeled C-terminal peptide mimic with F591R/P592R, pT594)]
Kd (14-3-3ζ-strep [11]): 0.3 µM

AEGRRA[pT]VPWSHPQFEK (also: fluorescein label, position not given here) [ERα(PKA)-strep phosphopeptide (fluorescein-labeled, pT594, with C-terminal strep-tag)]
Kd (14-3-3ζ-strep [12]): 14 µM

B2: ERαLBD-F-strep (PKA-responsive, non-phosphorylated) (domain or fragment, human (from the printed UniProt entry), UniProt P03372 302-595, looked up)
chain: KKNALALSLTADQMVSALLDAEPPILYSEYDPTRPFSEASMMGLLTNLADRELVHMINWAKRVPGFVDLTLHDQVHLLECAWLEILMIGLVWRSMEHPGKLLFAPNLLLDRNQGKCVEGMVEIFDMLLATSSRFRMMNLQGEEFVCLKSIILLNSGVYTFLSSTLKSLEEKDHIHRVLDKITDTLIHLMAKAGLTLQQQHQRLAQLLLILSHIRHMSNKGMEHLYSMKCKNVVPLYDLLLEMLDAHRLHAPTSRGGASVEETDQSHLATAGSTSSHSLQKYYITGEAEGRRATV
notes: also called ERα-strep; ERα(PKA)-strep; source: E. coli NiCo21 (DE3), purified (Ni-NTA, SUMO cleavage, Strep-Tactin, SEC); not shown: His tag, N-terminal, cleaved; SUMO, N-terminal, cleaved; strep-tag, C-terminal, kept
stoichiometry N [13]: 2
